Key:
Galectin-4 (Biolegend) = target: T1, Galectin-4 (Biolegend) (Mus musculus (Mouse), UniProt Q8K419 1-326); assay: ELISA, plate coated with Galectin-4, Dectin-1 IgG Fc at 2.5 µg/ml (concentration from paragraph 191, not on the sheet), detection with anti-IgG-HRP [cont.) I]
T1 construct: The sentence reads 'recombinant mouse Galectin-9 ..., Galectin-3, or Galectin-4'; whether 'mouse' also applies to Galectin-4 is not clear
T1 sequence: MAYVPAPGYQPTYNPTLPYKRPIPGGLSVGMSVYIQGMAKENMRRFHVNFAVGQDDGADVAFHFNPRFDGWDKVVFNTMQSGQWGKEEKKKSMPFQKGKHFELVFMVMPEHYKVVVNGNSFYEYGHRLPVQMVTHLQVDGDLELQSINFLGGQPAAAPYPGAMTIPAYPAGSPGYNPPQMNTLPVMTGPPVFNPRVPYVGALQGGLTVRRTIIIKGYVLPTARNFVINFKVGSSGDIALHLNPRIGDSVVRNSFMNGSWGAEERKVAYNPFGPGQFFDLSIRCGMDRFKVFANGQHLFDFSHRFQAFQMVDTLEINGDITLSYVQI
Description: (§1) To investigate if Galectin-9 can bind with Dectin-1, Protein G-magnet beads (2 ml; Dynabeads) were loaded with Dectin-1 IgG Fc (1 mg) or control IgG Fc before washing and blocking. Subsequently, beads were incubated with recombinant Galectin-9 ([…]; R&D Systems) for 30 min, washed, and stained with PE-conjugated anti-Galectin-9 (Biolegend, San Diego Calif.). Galectin-9 specific staining was determined by flow cytometry. To investigate the interaction between Galectin-9 and Dectin-1 by ELISA, plates (Maxisorp, Nunc, St. Louis, Mo.) were coated with recombinant mouse Galectin-9 ([…]; R&D Systems, Minneapolis, Minn.), Galectin-3, or Galectin-4 (both […]; Biolegend) for 16 hours at 4° C., blocked with 1% BSA/PBS for 1 hour, and incubated with increasing doses of Dectin-1 IgG Fc or control IgG Fc for 2 hours. The Galectin-bound Dectin-1 IgG Fc was detected with anti-IgG-HRP. […] Bead-bound precipitates were resuspended with loading buffer, resolved by SDS-PAGE under reduced conditions for western blotting using mAbs specific for Galectin-9. […] Dectin-1 signaling was measured by detection of secreted embryonic alkaline phosphatase. […] Syk phosphorylation was measured by flow cytometry at 3 hours.

Galectin-3 (Biolegend) = target: T2, Galectin-3 (Biolegend) (Mus musculus (Mouse), UniProt P16110 2-264); assay: ELISA, plate coated with Galectin-3, Dectin-1 IgG Fc at 2.5 µg/ml (concentration from paragraph 191, not on the sheet), detection with anti-IgG-HRP [cont.) I]
T2 construct: The sentence reads 'recombinant mouse Galectin-9 ..., Galectin-3, or Galectin-4'; whether 'mouse' also applies to Galectin-3 is not clear
Description: as §1

T2 sequence (P16110 2-264 limits assumed): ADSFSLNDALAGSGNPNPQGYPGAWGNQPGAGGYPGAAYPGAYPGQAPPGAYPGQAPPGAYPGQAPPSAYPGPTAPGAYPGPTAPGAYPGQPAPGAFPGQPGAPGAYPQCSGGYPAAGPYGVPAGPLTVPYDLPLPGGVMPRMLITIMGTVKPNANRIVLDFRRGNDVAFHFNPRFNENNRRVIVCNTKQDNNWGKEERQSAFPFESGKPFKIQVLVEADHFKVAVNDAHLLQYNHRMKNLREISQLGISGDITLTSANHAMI

binding result (Galectin-4 (Biolegend)): no binding (tested: 2.5 µg/ml)
binding result (Galectin-3 (Biolegend)): no binding (tested: 2.5 µg/ml)
B1: human IgG Fc-conjugated Dectin-1 fusion protein (murine Dectin-1 IgG Fc; fc-mdec1a, InvivoGen) (Fc fusion, mouse, UniProt Q6QLQ4 69-244, looked up)
chain: EYGHNSGRNPEEKDNFLSRNKENHKPTESSLDEKVAPSKASQTTGGFSQPCLPNWIMHGKSCYLFSFSGNSWYGSKRHCSQLGAHLLKIDNSKEFEFIESQTSSHRINAFWIGLSRNQSEGPWFWEDGSAFFPNSFQVRNTAPQESLLHNCVWIHGSEVYNQICNTSSYSICEKEL
notes: Bought reagent (fc-mdec1a; InvivoGen); also called Dectin-1 Fc; not shown: human IgG Fc

Reference: patent US20180044422A1 (NEW YORK UNIVERSITY, published 2018)
